Eight substances from patent US20080221021A1, “Novel Corticotropin-Releasing Factor Receptor 1 (Crfr1) Agonist” (Max-Planck-Gesellschaft Zur Forderung Der, priority 2004, published 2008) can be followed below.

Assay [1] has as its target rat CRFR1α (rat) (UniProt P35353). The experiment in a line: competition binding against [125I-Tyr0]h/rCRF, SPA; reference compound 6.
For assay [2] the target is unchanged. The experiment in a line: competition binding; selectivity for CRFR1 over CRFR2, reference h/rCRF; data not shown.
Assay [3] has as its target mouse CRFR2β (mouse) (UniProt Q60748). The experiment in a line: competition binding.
In assay [4] the target is rat CRFR1α (rat) (UniProt P35353). The assay is described as follows: competition binding.
For assay [5], the target named is mouse CRFR2β (mouse) (UniProt Q60748). The experiment in a line: competition.
For assay [6], the target named is rat CRFR1α (rat) (UniProt P35353). The experiment in a line: competition binding (SPA); selectivity for rCRFR1 over mCRFR2β, reference h/rCRF.

rat CRFR1α (rat), sequence (P35353 24-415): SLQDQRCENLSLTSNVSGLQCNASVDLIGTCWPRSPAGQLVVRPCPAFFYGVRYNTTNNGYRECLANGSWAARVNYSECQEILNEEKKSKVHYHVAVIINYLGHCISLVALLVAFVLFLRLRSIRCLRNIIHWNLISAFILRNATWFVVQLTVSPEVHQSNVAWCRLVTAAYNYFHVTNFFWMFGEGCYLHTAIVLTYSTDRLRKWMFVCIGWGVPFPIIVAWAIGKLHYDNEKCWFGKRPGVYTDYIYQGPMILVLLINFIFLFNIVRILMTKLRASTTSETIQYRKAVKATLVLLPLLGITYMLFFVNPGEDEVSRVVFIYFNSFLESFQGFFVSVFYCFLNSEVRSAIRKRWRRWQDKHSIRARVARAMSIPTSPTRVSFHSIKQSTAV
mouse CRFR2β (mouse), sequence (Q60748 20-411): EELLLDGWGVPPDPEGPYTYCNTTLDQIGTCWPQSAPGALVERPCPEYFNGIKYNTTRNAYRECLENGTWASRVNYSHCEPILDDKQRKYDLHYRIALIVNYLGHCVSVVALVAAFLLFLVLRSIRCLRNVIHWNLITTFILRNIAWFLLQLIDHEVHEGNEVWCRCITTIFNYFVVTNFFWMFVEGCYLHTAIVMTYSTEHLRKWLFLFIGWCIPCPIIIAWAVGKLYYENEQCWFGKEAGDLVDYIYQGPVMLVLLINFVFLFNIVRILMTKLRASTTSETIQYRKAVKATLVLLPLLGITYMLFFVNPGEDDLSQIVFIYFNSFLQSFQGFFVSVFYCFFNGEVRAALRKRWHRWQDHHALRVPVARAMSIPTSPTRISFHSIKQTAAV
human/rat corticotropin-releasing factor, sequence (P06850 154-194): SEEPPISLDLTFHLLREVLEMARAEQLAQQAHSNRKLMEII

On to “[Ala^40] [Svg^1-12]x[h/rCRF^14-30]x[Svg^30-40] (peptide)”, for which the fold increase in affinity against compound 6 in assay [1] is over 5 fold.

The substance “[Ala^41]h/rCRF (from UniProt P06850 154-194) (peptide)” came in with a fold increase in CRFR1 selectivity against h/rCRF in assay [2] of 3 fold. Usually IC50 stands for the concentration needed to halve the response being measured. The low end stands for higher potency, the high end for lower potency. On to “[Svg^1-12]x[h/rCRF^14-30]x[Svg^30-40] (from UniProt P01144 1-12; P06850 167-183; P01144 30-40)”, for which the figures for the IC50 in assay [3] and in assay [4] were 700 nM and 9.5 nM, respectively.

On to “[Svg^1-29]x[h/rCRF^31-41] (from UniProt P01144 1-29; P06850 184-194)”, for which the IC50 turned out to be 0.98 nM in assay [3] and 1.8 nM in assay [4]. For “[h/rCRF^1-13]x[Svg^13-29]x[h/rCRF^31-41] (from UniProt P06850 154-166; P01144 13-29; P06850 184-194)”, in that order: 0.69 nM and 0.47 nM. The like results for “[h/rCRF^1-30]x[Svg^30-40] (from UniProt P06850 154-183; P01144 30-40)” were, in that order, 330 nM and 2 nM. Regarding “human/rat corticotropin-releasing factor (from UniProt P06850 154-194)”, the figures for the IC50 in assay [5] and in assay [4] were 42 nM and 1.6 nM, respectively. In assay [6], “ovine corticotropin-releasing factor (peptide)” showed a fold higher selectivity for CRFR1 than h/rCRF of 3 fold.
